Numbering of substitutions follows the chain as printed. Read-outs that look alike come from different tables or passages of the source. Each block holds one molecule with its values, some of them ahead of it.
Key:
human EGFR [1] = target: T1, human EGFR (human, UniProt P00533 25-1210); experiment: flow cytometry competition on A431 cells; competitor: 10 nM biotinylated TGFα
chEGFRdIII-Fc [2] = target: T2, chEGFRdIII-Fc (murine; human, UniProt Q01279 334-483; P00533 484-505; Q01279 506-525); experiment: ELISA on the EGFR ECD-Fc construct (A450)
T2 construct: range 310-459;range 460-481;range 482-501; the split into three pieces follows from that; also called human/murine EGFR chimera; not shown: murine IgG2A hinge, CH2, and CH3 region

huEGFRdIII-Fc [3] = target: T3, huEGFRdIII-Fc (human; murine, UniProt P00533 334-525); experiment: ELISA on the EGFR ECD-Fc construct (A450)
T3 construct: range 310-501; Residue numbers count on the mature receptor, not on the precursor; also called human EGFR domain III; not shown: murine IgG2A hinge, CH2, and CH3 region

huEGFR-Fc [4] = target: T4, huEGFR-Fc (human; murine, UniProt P00533 25-645); experiment: ELISA on the EGFR ECD-Fc construct (A450)
T4 construct: extracellular domain; also called human EGFR ECD Fc fusion; wild type human EGFR; not shown: murine IgG2A hinge, CH2, and CH3 region (pmuFc2ANL vector)

human EGFR [5] = target: T1, human EGFR; experiment: flow cytometry competition on MDA-MB468 cells; competed: 0.2 nM biotinylated cetuximab; streptavidin-Alexa 488 detection
Method: (§1) To distinguish binding epitopes of anti-EGFR antibodies, antibody binding competition assays were done using flow cytometry. […] In brief, the biotinylated antibody was pre-mixed with varying concentration of ‘competing’ antibodies. The antibody mixture was then incubated with cells on ice for 2h. […] After washing, the cells were fixed and analyzed in FACScalibur. The geometric mean fluorescence intensity was plotted against antibody concentration in semi-log plot and normalized so that 100% represents the maximal binding of the biotinylated antibody in absence of other antibody and 0% represents the background staining in absence of the biotinylated antibody.

human EGFR [6] = target: T1, human EGFR; experiment: cell-based or functional assay
human EGFR [7] = target: T1, human EGFR; experiment: cell-based or functional assay; remark: listed apart in the source
human EGFR [8] = target: T1, human EGFR; experiment: flow cytometry competition on MDA-MB468 cells; competed: 0.3 nM biotinylated 528 antibody; streptavidin-Alexa 488 detection
Method: as §1

human EGFR [9] = target: T1, human EGFR; experiment: cell-based or functional assay; remark: listed apart in the source
human EGFR [10] = target: T1, human EGFR; experiment: flow cytometry competition on A431 cells; competitor: 1.8 nM biotinylated EGF
Method: To examine if the EGFR antibodies inhibit the ligand binding to the EGFR, the binding of biotinylated EGFR ligand to the A431 cells was measured by flow cytometry in the presence of anti-EGFR antibodies. […] Prior to competition assay, the binding curve of the biotinylated ligands was established. […] Cells were then washed twice with FACS buffer and incubated with streptavidin-APC conjugate (Jackson Immunoresearch) for 15 min on ice. Cells were washed twice with FACS buffer and analyzed in FACS Calibur (BD Bioscience) using FlowJo program (Tree Star). The geometric mean fluorescence intensities were plotted against the antibody concentration in a semi-log plot.

chEGFRdIII-Fc [11] = target: T2, chEGFRdIII-Fc; experiment: ELISA on the EGFR ECD-Fc construct (A450); remark: listed apart in the source
huEGFRdIII-Fc [12] = target: T3, huEGFRdIII-Fc; experiment: ELISA on the EGFR ECD-Fc construct (A450); remark: listed apart in the source
muEGFRdIII-Fc [13] = target: T5, muEGFRdIII-Fc (murine, UniProt Q01279 334-525); experiment: ELISA on the EGFR ECD-Fc construct (A450)
T5 construct: range 310-501; Residue numbers count on the mature receptor, not on the precursor; also called murine EGFR domain III; not shown: murine IgG2A hinge, CH2, and CH3 region

huEGFR-Fc [14] = target: T4, huEGFR-Fc; experiment: ELISA on the EGFR ECD-Fc construct (A450); remark: listed apart in the source
chEGFRdIII-Fc [15] = target: T2, chEGFRdIII-Fc; experiment: ELISA on the EGFR ECD-Fc construct (A450); remark: listed apart in the source
huEGFRdIII-Fc [16] = target: T3, huEGFRdIII-Fc; experiment: ELISA on the EGFR ECD-Fc construct (A450); remark: listed apart in the source
muEGFRdIII-Fc [17] = target: T5, muEGFRdIII-Fc; experiment: ELISA on the EGFR ECD-Fc construct (A450); remark: listed apart in the source
huEGFR-Fc [18] = target: T4, huEGFR-Fc; experiment: ELISA on the EGFR ECD-Fc construct (A450); remark: listed apart in the source

B1: muEGFR-7 antibody (antibody, V domains shown)
VH: QVQLQQSGAELARPGASVKLSCKASGYTFTSYWMQWVKQRPGQGLECIGTIYPGDGDTTYTQKFKGKATLTADKSSSTAYMQLSSLASEDSAVYYCARYDAPGYAMDYWGQGTSVTVSS
VL: DIQMTQSPSSLSASLGGKVTITCKASQDINNYLAWYQHKPGKGPRLLIHYTSTLHPGIPSRFSGSGSGRDYSFSISNLEPEDIATYYCLQYDNLLYTFGGGTKLEIKR
notes: Murine hybridoma antibody (ATCC PTA-11332)
EC50 (chEGFRdIII-Fc [2]): 0.294 nM | EC50 (huEGFRdIII-Fc [3]): 0.043 nM | EC50 (huEGFR-Fc [4]): 0.0328 nM | IC50 (read off the curve) (human EGFR [5]): ~2 nM | EC50 (nM), anti-proliferative activity in NCI-H292 cells (human EGFR [6]): 0.4 nM | EC50 (nM), anti-proliferative activity in HCC827 cells (human EGFR [7]): 0.03 nM | Maximal inhibition (%), HCC827 cells (human EGFR [7]): 72% | IC50 (read off the curve) (human EGFR [8]): ~2 nM | EC50 (nM), anti-proliferative activity in NCI-H292 cells (human EGFR [9]): 0.21 nM

B2: muEGFR-12 antibody (antibody, V domains shown)
VH: B1 VH with A9T, T59R, T61I
VL: DVQITQSPSYLAASPGETITINCRASKSISKYLAWYQEKPGKTNKLLIYSGSTLQSGIPSRFSGSGSGTDFTLTISSLEPEDFAMYYCQQHNEYPWTFGGGTKLEIK
notes: Murine hybridoma antibody (ATCC PTA-11333)
EC50 (human EGFR [10]): 2.93 nM | IC50 (read off the curve) (human EGFR [5]): ~2 nM | EC50 (human EGFR [1]): 1.34 nM | EC50 (nM), anti-proliferative activity in HCC827 cells (human EGFR [7]): 0.7 nM | Maximal inhibition (%), HCC827 cells (human EGFR [7]): 63% | IC50 (read off the curve) (human EGFR [8]): ~2 nM | EC50 (chEGFRdIII-Fc [11]): 1.24 nM | EC50 (huEGFRdIII-Fc [12]): 0.0572 nM | binding result (muEGFRdIII-Fc [13]): no binding (tested: 10^-7 M) | EC50 (huEGFR-Fc [14]): 0.0485 nM

Now from value to molecule:

EC50 (human EGFR [1]): 1.34 nM
Molecule: TGFα (ligand)

EC50 (human EGFR [10]): 2.55 nM | IC50 (read off the curve) (human EGFR [5]): ~2 nM | EC50 (chEGFRdIII-Fc [15]): 0.867 nM | EC50 (huEGFRdIII-Fc [16]): 0.0694 nM | binding result (muEGFRdIII-Fc [17]): no binding (tested: 10^-7 M) | EC50 (huEGFR-Fc [18]): 0.0484 nM | EC50 (human EGFR [1]): 1.18 nM | EC50 (nM), anti-proliferative activity in NCI-H292 cells (human EGFR [6]): 5.6 nM | EC50 (nM), anti-proliferative activity in HCC827 cells (human EGFR [7]): 0.3 nM | Maximal inhibition (%), HCC827 cells (human EGFR [7]): 72% | IC50 (read off the curve) (human EGFR [8]): ~2 nM | EC50 (nM), anti-proliferative activity in NCI-H292 cells (human EGFR [9]): 2.59 nM
B3: muEGFR-6 antibody (antibody, V domains shown)
VH: B1 VH with T50A, I51L, T58A, T59R, K74R, S118A
VL: B1 VL with L33I
notes: Murine hybridoma antibody (ATCC PTA-11331)

— US20140099308A1 (IMMUNOGEN, published 2014)
